Experimental data reported in WO2013015821A1.

Experiments:
[1] = molecular target: human transcobalamin receptor (TCblR/CD320), full length, on cells (human) (UniProt Q9NPF0); experiment: TC-[57Co]Cbl on normal and TCblR overexpressing HEK 293 cells, 1 hour at 37°C, surface counts released by trypsin/EDTA
[2] = molecular target: TCblR with the cytoplasmic tail deleted, membrane-anchored on HEK293 cells (human) (UniProt Q9NPF0); experiment: TC-[57Co]Cbl on HEK293 cells expressing TCblR with the cytoplasmic tail deleted, surface counts released by trypsin/EDTA

Sequence of UniProt Q9NPF0 (Q9NPF0 36-282 limits assumed): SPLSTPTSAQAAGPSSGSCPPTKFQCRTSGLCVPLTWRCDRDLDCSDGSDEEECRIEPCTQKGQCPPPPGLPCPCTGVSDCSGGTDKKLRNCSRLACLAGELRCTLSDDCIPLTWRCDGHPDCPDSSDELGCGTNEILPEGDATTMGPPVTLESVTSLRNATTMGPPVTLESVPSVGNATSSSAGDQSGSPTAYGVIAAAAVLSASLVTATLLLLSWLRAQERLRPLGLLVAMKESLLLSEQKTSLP

% of the radiolabel on the membrane [1]: 37 to 43% | % of the TCblR-bound radiolabel remaining on the cell surface [2]: 80%
B1: transcobalamin saturated with cobalamin (TC-Cbl) (ligand, human, UniProt P20062 19-427, looked up)
chain: EMCEIPEMDSHLVEKLGQHLLPWMDRLSLEHLNPSIYVGLRLSSLQAGTKEDLYLHSLKLGYQQCLLGSAFSEDDGDCQGKPSMGQLALYLLALRANCEFVRGHKGDRLVSQLKWFLEDEKRAIGHDHKGHPHTSYYQYGLGILALCLHQKRVHDSVVDKLLYAVEPFHQGHHSVDTAAMAGLAFTCLKRSNFNPGRRQRITMAIRTVREEILKAQTPEGHFGNVYSTPLALQFLMTSPMRGAELGTACLKARVALLASLQDGAFQNALMISQLLPVLNHKTYIDLIFPDCLAPRVMLEPAAETIPQTQEIISVTLQVLSLLPPYRQSISVLAGSTVEDVLKKAHELGGFTYETQASLSGPYLTSVMGKAAGEREFWQLLRDPNTPLLQGIADYRPKDGETIELRLVSW
modifications: cobalamin bound non-covalently ([57Co]Cbl in the radio assays)
